Results published in publication PMC12416549 (2024).
Numbering of substitutions follows the chain as printed. Numbers in names are those of the source.

Target: T1, TNFR1 (Homo sapiens, UniProt P19438)
T1 chain: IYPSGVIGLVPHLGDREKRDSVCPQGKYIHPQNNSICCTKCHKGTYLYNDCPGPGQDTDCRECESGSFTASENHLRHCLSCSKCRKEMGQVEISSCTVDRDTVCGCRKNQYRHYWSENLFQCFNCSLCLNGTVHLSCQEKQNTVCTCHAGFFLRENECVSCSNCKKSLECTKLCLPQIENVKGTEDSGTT
Assay: yeast display SC50

B1: E45Y (designed binder)
chain: SMEEEVEKAAKEYEKKKKEAIEKHLEKLKAKDKEAAERFLKELEYAAKEYAKDEAKTMSEEEAKRRAKKYKEKVLLSELSEEEQKEIKEAEEKLVRTILKYVEEAAK
For B1, the “apparent Kd (screen)” value was 2.73 nM.

B2: Y70A (designed binder)
chain: B1 chain with Y45E, Y70A
For B2, the “apparent Kd (screen)” value was 4.83 nM.

B3: A63D (designed binder)
chain: B1 chain with Y45E, A63D
For B3, the “apparent Kd (screen)” value was 10.4 nM.

B4: Y101V (designed binder)
chain: B1 chain with Y45E, Y101V
For B4, the “apparent Kd (screen)” value was 0.446 nM.

B5: E12N (designed binder)
chain: B1 chain with E12N, Y45E
With B5 the “apparent Kd (screen)” value was 1.16 nM.

B6: K88A (designed binder)
chain: B1 chain with Y45E, K88A
B6 was tested, and the “apparent Kd (screen)” value was 0.405 nM.

B7: A30Q (designed binder)
chain: B1 chain with A30Q, Y45E
For B7, the “apparent Kd (screen)” value was 0.593 nM.

B8: A30K (designed binder)
chain: B1 chain with A30K, Y45E
In the case of B8, the “apparent Kd (screen)” value is reported as 0.956 nM.

B9: A51N (designed binder)
chain: B1 chain with Y45E, A51N
B9 was tested, and the “apparent Kd (screen)” value was 12.5 nM.

B10: E26G (designed binder)
chain: B1 chain with E26G, Y45E
With B10 the “apparent Kd (screen)” value was 0.593 nM.

B11: E83V (designed binder)
chain: B1 chain with Y45E, E83V
For B11, the “apparent Kd (screen)” value was 0.446 nM.

B12: K52T (designed binder)
chain: B1 chain with Y45E, K52T
For B12, the “apparent Kd (screen)” value was 0.446 nM.

B13: A20S (designed binder)
chain: B1 chain with A20S, Y45E
B13 was tested, and the “apparent Kd (screen)” value was 0.446 nM.

B14: E19M (designed binder)
chain: B1 chain with E19M, Y45E
With B14 the “apparent Kd (screen)” value was 0.446 nM.

B15: I21D (designed binder)
chain: B1 chain with I21D, Y45E
In the case of B15, the “apparent Kd (screen)” value is reported as 10.4 nM.

B16: A105I (designed binder)
chain: B1 chain with Y45E, A105I
For B16, the “apparent Kd (screen)” value was 1.69 nM.

B17: A63N (designed binder)
chain: B1 chain with Y45E, A63N
In the case of B17, the “apparent Kd (screen)” value is reported as 6.43 nM.

B18: E37F (designed binder)
chain: B1 chain with E37F, Y45E
For B18, the “apparent Kd (screen)” value was 0.49 nM.

B19: I87T (designed binder)
chain: B1 chain with Y45E, I87T
With B19 the “apparent Kd (screen)” value was 12.5 nM.

B20: E26I (designed binder)
chain: B1 chain with E26I, Y45E
B20 was tested, and the “apparent Kd (screen)” value was 1.16 nM.

B21: I87P (designed binder)
chain: B1 chain with Y45E, I87P
With B21 the “apparent Kd (screen)” value was 22.2 nM.

B22: E54L (designed binder)
chain: B1 chain with Y45E, E54L
For B22, the “apparent Kd (screen)” value was 4.39 nM.

B23: E49S (designed binder)
chain: B1 chain with Y45E, E49S
With B23 the “apparent Kd (screen)” value was 1.27 nM.

B24: E54R (designed binder)
chain: B1 chain with Y45E, E54R
In the case of B24, the “apparent Kd (screen)” value is reported as 18.3 nM.
